Source: the RNAGym collection of RNA variant scans (doi:10.7554/elife.80360)

B1: Hairpin Ribozyme (parent)
chain: GUCCUCUUUCACGUGCGCGUGAAAGAGAGAAGUGAACCAGAGAAACACACGUUGUGGUAUAUUACCUGGUA

Variants of: B1
Assay: self-cleavage, relative activity (ratio to wild type); higher = more cleavage; co-transcriptional

Point of comparison: GUCCUCUUUCACGUGCGCGUGAAAGAGAGAAGUGAACCAGAGACACACACGUUGUGGUAUAUUACCUGGUG [A44C A71G], self-cleavage 0.211. Against it:
- GUCCUCUUUCACGUGCGCGUGAAAGAGAGAAGUGAACCAGAGACACACACGUUGUGGUAUAUUACCUGGCA [A44C U70C] — lower, 0.176
- GUCCUCUUUCACGUGCGCGUGAAAGAGAGAAGUGAACCAGAGACACACACGUUGUGGUAUAUUACCUGGAA [A44C U70A] — lower, 0.109
- GUCCUCUUUCACGUGCGCGUGAAAGAGAGAAGUGAACCAGAGACACACACGUUGUGGUAAAUUACCUGGUA [A44C U60A] — lower, 0.172
- GUCCUCUUUCACGUGCGCGUGAAAGAGAGAAGUGAACCAGAGACACACACGUUCUGGUAUAUUACCUGGUA [A44C G54C] — lower, 0.0581
- GUCCUCUUUCACGUGCGCGUGAAAGAGAGAAGUGAACCAGAGACACACACGUUUUGGUAUAUUACCUGGUA [A44C G54U] — lower, 0.194
- GUCCUCUUUCACGUGCGCGUGAAAGAGAGAAGUGAACCAGAGACACACACGUUAUGGUAUAUUACCUGGUA [A44C G54A] — lower, 0.184
- GUCCUCUUUCACGUGCGCGUGAAAGAGAGAAGUGAACCAGAGACACACACGUUGUGGUAUCUUACCUGGUA [A44C A61C] — higher, 0.288
- GUCCUCUUUCACGUGCGCGUGAAAGAGAGAAGUGAACCAGAGACACACACGUUGUGGUAUAUUACCUGGUA [A44C] — lower, 0.148
- GUCCUCUUUCACGUGCGCGUGAAAGAGAGAAGUGAACCAGAGAGACACACGUUGUGGUAUAUUACCUGGUA [A44G] — lower, 0.146
- GUCCUCUUUCACGUGCGCGUGAAAGAGAGAAGUGAACCAGAGUAACACACGUUGUGGUAUAUUACCGGGUA [A43U U67G] — lower, 0.0666
- GUCCUCUUUCACGUGCGCGUGAAAGAGAGAAGUGAACCAGAGUAACACACGUUGUGGUAUAUUACCAGGUA [A43U U67A] — lower, 0.0806
- GUCCUCUUUCACGUGCGCGUGAAAGAGAGAAGUGAACCAGAGUAACACACGUUGUGGUAGAUUACCUGGUA [A43U U60G] — lower, 0.0802
- GUCCUCUUUCACGUGCGCGUGAAAGAGAGAAGUGAACCAGAGACACACACGUUGUUGUAUAUUACCUGGUA [A44C G56U] — higher, 0.241
- GUCCUCUUUCACGUGCGCGUGAAAGAGAGAAGUGAACCAGAGUAACACACGUUGUGGUAUAUUACCUGGAA [A43U U70A] — lower, 0.145
- GUCCUCUUUCACGUGCGCGUGAAAGAGAGAAGUGAACCAGAGACCCACACGUUGUGGUAUAUUACCUGGUA [A44C A45C] — lower, 0
- GUCCUCUUUCACGUGCGCGUGAAAGAGAGAAGUGAACCAGAGAGACGCACGUUGUGGUAUAUUACCUGGUA [A44G A47G] — lower, 0.17
- GUCCUCUUUCACGUGCGCGUGAAAGAGAGAAGUGAACCAGAGACACACACGUUGUGGUAUAUUAGCUGGUA [A44C C65G] — lower, 0.17
- GUCCUCUUUCACGUGCGCGUGAAAGAGAGAAGUGAACCAGAGACACACACGUUGUGGUAUAUUACCUUGUA [A44C G68U] — lower, 0.126
- GUCCUCUUUCACGUGCGCGUGAAAGAGAGAAGUGAACCAGAGACACACACGUUGUGGUAUAUUACCCGGUA [A44C U67C] — lower, 0.099
- GUCCUCUUUCACGUGCGCGUGAAAGAGAGAAGUGAACCAGAGACACACACGUUGUGGUAUAUUACCGGGUA [A44C U67G] — lower, 0.094
- GUCCUCUUUCACGUGCGCGUGAAAGAGAGAAGUGAACCAGAGACACACACCUUGUGGUAUAUUACCUGGUA [A44C G51C] — higher, 0.289
- GUCCUCUUUCACGUGCGCGUGAAAGAGAGAAGUGAACCAGAGACACACACGUUGUGAUAUAUUACCUGGUA [A44C G57A] — lower, 0.135
- GUCCUCUUUCACGUGCGCGUGAAAGAGAGAAGUGAACCAGAGACACACACGUUGUGCUAUAUUACCUGGUA [A44C G57C] — higher, 0.215
- GUCCUCUUUCACGUGCGCGUGAAAGAGAGAAGUGAACCAGAGACACACACGUGGUGGUAUAUUACCUGGUA [A44C U53G] — lower, 0.0885
- GUCCUCUUUCACGUGCGCGUGAAAGAGAGAAGUGAACCAGAGACACACGCGUUGUGGUAUAUUACCUGGUA [A44C A49G] — higher, 0.22
- GUCCUCUUUCACGUGCGCGUGAAAGAGAGAAGUGAACCAGAGACACACACGUUGUGGUAUACUACCUGGUA [A44C U62C] — higher, 0.279
- GUCCUCUUUCACGUGCGCGUGAAAGAGAGAAGUGAACCAGAGACACCCACGUUGUGGUAUAUUACCUGGUA [A44C A47C] — lower, 0.121
- GUCCUCUUUCACGUGCGCGUGAAAGAGAGAAGUGAACCAGAGACACACACGUUGUGGUUUAUUACCUGGUA [A44C A59U] — lower, 0.103
- GUCCUCUUUCACGUGCGCGUGAAAGAGAGAAGUGAACCAGAGACACACACGUUGUGGGAUAUUACCUGGUA [A44C U58G] — lower, 0.128
- GUCCUCUUUCACGUGCGCGUGAAAGAGAGAAGUGAACCAGAGACACACACGUUGUGGCAUAUUACCUGGUA [A44C U58C] — lower, 0.141
- GUCCUCUUUCACGUGCGCGUGAAAGAGAGAAGUGAACCAGAGACACACAUGUUGUGGUAUAUUACCUGGUA [A44C C50U] — lower, 0.15
- GUCCUCUUUCACGUGCGCGUGAAAGAGAGAAGUGAACCAGAGUAACACACGUUGUGGUAUAUGACCUGGUA [A43U U63G] — higher, 0.307
- GUCCUCUUUCACGUGCGCGUGAAAGAGAGAAGUGAACCAGAGACACACACGCUGUGGUAUAUUACCUGGUA [A44C U52C] — higher, 0.213
- GUCCUCUUUCACGUGCGCGUGAAAGAGAGAAGUGAACCAGAGACACACACGAUGUGGUAUAUUACCUGGUA [A44C U52A] — lower, 0.0299
- GUCCUCUUUCACGUGCGCGUGAAAGAGAGAAGUGAACCAGAGUAACACACGUUGUGGUAUAGUACCUGGUA [A43U U62G] — lower, 0.0478
- GUCCUCUUUCACGUGCGCGUGAAAGAGAGAAGUGAACCAGAGUAACACACGUUGUGGUAUAAUACCUGGUA [A43U U62A] — higher, 0.227
- GUCCUCUUUCACGUGCGCGUGAAAGAGAGAAGUGAACCAGAGUAACACACGUUGUGGUAUACUACCUGGUA [A43U U62C] — lower, 0.107
